Experiment: soluble fraction after stress (log2 fold change); higher = more stays soluble; pooled small domains, quantitative proteomics
Conditions: stress: pH 4
Summary of the method: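 Values are log2 fold changes, and higher ones mean more of the domain stayed soluble. Each fold change reflects the soluble amount of a domain after acid stress and is taken as a measure of aggregation propensity. The stress was pH 4, applied to pooled custom libraries of small protein domains analysed by high-throughput quantitative proteomics.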

Sequence	soluble fraction (log2)
HMNPNEVQIPDLVNKTEEEAEQILKDLKLKLVVKSEEYDENIEKGKIISQDPTYKENYKIKEHSEISVIIS	0.0816
HMRVDLVQRLARHGLSPRQSAVAGGVLRGLDNGEISRQLYIAEQTVKDHLHEIYHRLGVHTRTELLIKVLG	-0.359
HMNFFQEIGNSILIELNKKNWTQSMFAHKIGVSDEVFKQIVQGKKALNAVEIAKIANTLDVDPEKLLRK	-0.0391
HMNTPTLLLYGGKDHSVPEAGIRHLRAHLSANDRGEYRFYPNAPHLLLQSRQWQQVSQDISQWLAMT	0.0454
HMHRIKRRNDTLVSALDSIAGIGAKRKKALLQHFGSVRAIKAVSAEEIAKVEGISPTLANQIFEAL	-0.0221
HMGVSEIGSPAWMESKLVTLASYEGSLDGLRTLWGGVAQHRARIPVESWDRLFAAKEEGKARLVKLGRT	0.0299
HMNPSAFSEYSFELLQSALLKKKIDENLSNQTIARDAGVSEAFVQKVLTNNVKRPSVKNRVRMISYLGLD	0.00228
HMDEEAIELTQEVMKLPPKQREVILLYYYHGLTGKEIAKALGISGAAVSKRLKQAKNQLHFALK	0.0819
HMVSSAEQQARDKESGMILVQEAGGPDKARALVEKMRQDIRNPALDGTRRQMLRGHVARIELALAELETG	-0.0115
HMDPERLDQLQNPDPAVRREAIIALGRSKDLAALPELAKVYKNDPVPELRELARQAGRYIQQENRP	0.254
HMASGLITEEQAKSKALAHAGLSASQVNFIWVKQDWEDGRRVYEVEFYTDDYQEYDYEIDARTGEILSFDY	-1.06
HMGSPVTAVMNRVLNETERQIVTLHVISGFKHREIAELLEKPVGTVLWTYNNALGKMRKAMQRE	-0.603
HMKSNIIPLSLKKPQRLDIFLTNYFVDLSRTQIKKMITDGNIKVNDLIAKPSLKLIGDEIIFYTLPK	-0.698
HMFRSTLEELKHQISGFLKANQSQEFTAQNLADGLRMTSIAEYKRVVNAMDALVRDGELTFDAGKYQYNPN	0.252
HMLQFTYPRLHTKKSWYVDFMSFDPGAGKMRRKKFMLDGIPKITDRRKRAAELIEVLTKQLRAGWSPWVNV	0.403
HMIQNTGMMESGDSIRGMALDAGFPLLMVVGYRGWTRKGNTPDSAAVYTEPFLNAFRLNYYLVEHDE	-0.0253
HMQLNNTDELEKIILKILENNPKQVDQFLAGKQKLLGFFVGQAMRATSGKANPKTVNDLLEKFLSK	-0.335
HMSEHKFIVPEEFNLKRLDQTVAAQFEKISRTKISKIIKSSLLKVNDKVVTDQSIKIKQDDVITFTEIKDQ	0.237
HMAAIPATVDEETYRRLKPMLKQYGILYHEFKPLRSGKKGAVELIFMEKDLALVQELLSRLKKEK	-0.0159
HMTKTSQEDEDIMRHLDELHTRWPFLGQRKLIEELKDQGIQIGRKRLRRLMKVMGIEAIAPK	0.173
HMERPSLDQVLAHAKALGIAPARFVAYADGRWGTGWRLSPHGRARAWEELDRHRNDPLGYRDKLDVALQSG	0.181
HMTGGLTQEQISQLRMLTPQQIEQLRQLQPQQVEMLRQLRPEQVMLLTQLEPQQIMAFMRLEPSVIMQL	-0.657
HMGEGIRIDSTAVVQVGEKMYAYLGGDGFSKEFWTNLPASGELAVTLKFEPIPMDAESLDFYEMPA	0.154
HMTEWDDATVKDAVEYFMSVNGRVPTVTDFKKENGLPSHPVIKQRYKINLHEWLNKNFPTYY	-1.19
HMTEDELLAQFEEILDGYVGKPGGLIPALQTAQKLFGYLPKRVLQLISMKLDIPYSEVTGVVSFYSFFTTV	-1.12
HMDKPGMRLNQFIAHSGISSRREADNLIKAGLVQVNGKIIVEMGFRVMPTDIVKFNNETIAS	0.378
HMPTTLEGIEKYLSSGLIKGIGPHLAGKLVEAFGTRVFEVVEHQPERLRTVGGIGRTRAESITSAWRDQ	-0.141
HMGANAVAAFTARVRTGPSTGYPVRISVPQGRQVRVISGPYGGWYRVSYQGLTGYTYGGLLRQG	-0.222

— the domain aggregation screens of Martell et al. (2025)
